Experimental findings from the nanobody polyreactivity screen of Harvey et al. (2022) are described below.

The data set can be described thus: yeast display, Sf9 membrane polyspecificity reagent, FACS + sequencing; frameworks hold sequencing errors. The essentials:
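Polyreactivity labels are assigned by the sorting gate from which each nanobody was recovered. The gates were low and high (top ~1%), set on anti-HA fluorescence for expression and streptavidin fluorescence for reagent binding. Before sorting, galactose-induced (36–48 hours) yeast display cells were stained for 1 hour at 4 °C with 10% biotinylated, detergent-solubilized Sf9 membrane reagent.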
Turning to “QVQLVESGGGLVQAGGSLRLSCAASGFTFYKNTMGWYRQAPGKERELVAAISSSGSSTYYADSVKGRFTISRDKAKNTVYLQMNSLKPEDTAVYYCAAGRFAYHDDYWGQGTQVTVSS”, the “polyreactivity (PSR sort gate)” value is reported as “high polyreactivity”.

Regarding “QVQLVESGGGLVQAGGSLRLSCAASGRIFYYNAMGWYRQAPGKERELVAAINYRGGSTYYADSVKGRFTISRDNAKNTVYLQMNSLKPEDTAVYYCAARYWEDGSTYDYWGQGTQVTVSS”, the “polyreactivity (PSR sort gate)” value is on record as “high polyreactivity”.

For “QVQLVESGGGLVQAGGSLRLSCAASGRIFSANAMGWYRQAPGKERELVATISTGGGRTYYADSVKGRFTISRDNAKNTVYLQMNSLKPVDTAVYYCNATRNYARVRYYYWGQGTQVTVSS”, the “polyreactivity (PSR sort gate)” value is given as “high polyreactivity”.

For the sequence “QVQLEESGGGLVQAGGSLRLSCAASGFIFYQYAMGSYRQAPGKVRELVAAISWNGGRTYYADSVKGRFTISRDNAKNTVYLQMNSLKPEDTAVYYCAAPVLTSDYTLDSYYWGQGTQVTVSS”, the “polyreactivity (PSR sort gate)” value is recorded as “high polyreactivity”.

Take “QVQLVESGGGLVQAGGSLRLSCAASGITSFFYDMGWYRQAPGKERELVAGISSGGSTNYADSVKGRFTISRDNAKNTVYLQMNSLKPEDTAVSYCAKDYPHTVSLGEYDYWGQGTQVTVSS”: the “polyreactivity (PSR sort gate)” value is “high polyreactivity”.

For “QVQLVESGGGLVQAGGSLRLSCAASGSTFFIYTMGWYRQAPGKEREFVAAISWTGGRTYYADSVKGRFTISRDNAKYTVYLQMNSLIPEDTPVYYCAALYKYSSYDYWGQGTQVTVSS”, the “polyreactivity (PSR sort gate)” value is reported as “high polyreactivity”.

For “QVQLVESGGGLVQAGGSLRLSCAASGRTFLRNAMGWYRQAPGKERELVAAISSGGGRTYYADSVKGRFTISRDNAKNTVYLQMNSLKPEDTAVYYCAALYQYLGGVYEGYYWGQGTQVTVSS”, the “polyreactivity (PSR sort gate)” value is reported as “high polyreactivity”.

For “QVQLVESGGGLVQAGGSLRLSCAASGSTFAGNAMGWYRQAPGKERELVAAIDSSTGSTYYADSVKGRFTISRDNAKNTVYLQMNSLKPEDTPVYYCSREYYEGYEYWGLGTQVTVSS”, the “polyreactivity (PSR sort gate)” value is listed as “low polyreactivity”.

Regarding “QVQLVESGGGLVQAGGSLRLSCAASGPTFNRYTMGWYRQAPGKERELVATITGGGSTNYADSVKGRFTISRDNAKNTVYLQMNSLKPEDTAVYYCARAVVQSRGPPRYKTPYDYWGQGTQVTVSS”, the “polyreactivity (PSR sort gate)” value is on record as “low polyreactivity”.

For “QVQLVETGGGIVQARGRLRLSCAASVITFTGYAMGWYRPAPGKERELVAAITSGGGRTYYADSVKGRFTISRDNAKNTVYLLMNSLKPEDTAVYYCNARGQSRYGYWGQGTQVTVSS”, the “polyreactivity (PSR sort gate)” value was “high polyreactivity”.

In the case of “QVQLVESGGGLVQAGGNLRLSCAASGFIFTRNAMGWYRQAPGKERELVAAISTSGDRTYYADSVKGRFTISRDNAKNTVYLQMNSLKPEDTAVYYCAVVRPRYVVRYDYWGQGTQVNVSS”, the “polyreactivity (PSR sort gate)” value is “high polyreactivity”.

With “QVQLVESGGGLVQAGGSLRLSCAASGRTISKNAMGWYRQAPGKERELVAAISGSGGSTYYADSVKGRFTISRDNAKNTVYLQMNSLKPEDTAVYYCADRYTVSRSGYWGQGTQVTVSS”, the “polyreactivity (PSR sort gate)” value is recorded as “high polyreactivity”.

As to “QVQLVESGGGLVQAGGSLRLSCAASGRIFSPYVMGWYRQAPGKERELVAAITGSGGSTYYADSVKGRFTISRDNAKKTVYLQMNSLKPEDTAVYYCAVVSRTTAMDYRGQGTQVTVSS”, the “polyreactivity (PSR sort gate)” value is “high polyreactivity”.

Regarding “QVQLVESGGGLVQAGGSLRLSCAASGRTFWNNAMGWYRQAPGKERELVAAISVRGGSTYYADSVKGRFTISRDNAKNTVYLQMNSLKPEDTAVYYCATRSRGWIAPPWQGSDGYYYWGQGTQVTVSS”, the “polyreactivity (PSR sort gate)” value is recorded as “low polyreactivity”.

On to “QVQLVESGGGLVQAGGSLRLSCAASGRTFRFTAMGWYRQAPGKERELVAAISFRGGSTYYADSVKGRFTISRDNAKNTVYLQMNSLKPEDTAVYYCAARARTGTYRDMYYWGQGTQVTVSS”, for which the “polyreactivity (PSR sort gate)” value was “high polyreactivity”.

With “QVQLVESGGGLVQAGGSLRLSCAASGGTIVPNAMGWYRQAPGTERELVATLTSSDTTNYADSVKGRFTISRDNAKNTVYLQMNSLKPEDTAVYYSAASFKLGYWDYYYWGQGTQVTVSS”, the “polyreactivity (PSR sort gate)” value is “low polyreactivity”.

With “QVQLVESGGGLVQAGGSLRISCAASGSTFAYNAMGWYIQAPGKERELVAVISKGGGRTYYADSVKGRFTISRDNAKNTVYLQINSLKPEDTAVYYCAARYIPVYTREREYNYWGQGTQVTVSS”, the “polyreactivity (PSR sort gate)” value is “high polyreactivity”.

Turning to “QVQLVESVGGLVQAGGSLRLSCAASGSNFGSYAMGWYRQAPGKERSTYYADSVKGRFTISRDNAKNTVYLQMNSLKPEDTAVYYCAADTYGYQGSAGGHWGQGTQVTVSS”, the “polyreactivity (PSR sort gate)” value was “low polyreactivity”.

Regarding “QVQLVESGGGLVQAGGSLRLSCAASGSSFNGNAMGWYRQAPGKERELVAAISRKGGSTYYADSVKGRFTISRDNAKNTVYLQMNSLKPEDTAVYYCATDLTVYYSYYWMYWGQGTQVTVSS”, the “polyreactivity (PSR sort gate)” value was “low polyreactivity”.

Turning to “QDQLVESGGGLVQAGGSLRISCAASGSIFTYNAMGWYREAPGKERELVAAINTSGSTNYADSVKGRFTISRDNAKNTVYLQKNSLKPEDTAVYYCAADYPYWRRPYSRYGYWGQGTQVTVSS”, the “polyreactivity (PSR sort gate)” value is reported as “low polyreactivity”.

With “QVQLVESGGGLVQAGGSLRLSCAASGRIFSRYTMVWYRQAPRKERELVAAISSSGGSTYYADSVKGRFTISRDNAKNTVYLQMNSLKQEDTAVYYCAARQYIGSPPHRRRFDYWGQGTQVTVSS”, the “polyreactivity (PSR sort gate)” value is listed as “high polyreactivity”.

In the case of “QVQIVESGGGLVQAGGSLRLSCAASGRTYYYAMGWYRQAPGKERELVAAITESGDNTYYADSVKGRFTISRDNAKNTVYLQMNSLKPEDTAVYYCAVDYPSPSYYYEYYYWGQGTQVTVSS”, the “polyreactivity (PSR sort gate)” value is given as “high polyreactivity”.

For “QVQLVESGGGLVQAGGSLRLSCAASGFIFTDYAMGWYRQAPGKEREFVAAIDWSGGNTYYADSVKGRFTISRDNAKNTVFLQMNSLKPEDSAVYYCAASGSAREYDYWGQGTQVTVSS”, the “polyreactivity (PSR sort gate)” value was “low polyreactivity”.

Turning to “HVQLVESAGGLVQARGSLRLSCAASGSIFVTYAMGWYRQARGKERELVATITYSGGSTSYADSVKGRFTISRDNAKITVYLQMNSLKPDDTAVYFCAADLDSDFDYWGQGTQVTVSS”, the “polyreactivity (PSR sort gate)” value was “low polyreactivity”.

With “QVQLVESGGGLVQAGGSLRLSCAASGRIFYRYAMGWYRQAPGKERELVATISSGASTNYADSVKGRFTISRDNAKNTVYVQMNSLKPEDTADYYCARLSLRYSYVSRDYWGHGTQVTVSS”, the “polyreactivity (PSR sort gate)” value is “low polyreactivity”.

Regarding “QVQHVESGGGLVQAGGSLRLSCAASGSTLSRYVMGWDRQAPGKERELVASISWTGTRTYYADSVKGRFTISRDNAKNTVYLQMNSLKPEDTAVYYCNAVSRGGRLYDYWGQGTQVTVSS”, the “polyreactivity (PSR sort gate)” value is recorded as “high polyreactivity”.

On to “QVQLVESGGGLVQAGGSLRLSCAASGIIFNANTMLWYRQAPGKERELVAAITRGGSTNYADSEKGRFTISRDNAKNTVYLQMNSLKPEDTAVYYCAARTGYYCGSGGNRYISPYDYWGQGTQVTVSS”, for which the “polyreactivity (PSR sort gate)” value is “low polyreactivity”.

As to “QVQLVESGGGLVQAGGSLRLSCAASGSIFGRNAMGWYRQAPGKERELVAAISSRSDRTYYADSVKGRFTISRDNAKNTVYLQMNSLKPEDTAVYYCAARYGSSQNGYKSDYWGQGTQVTLSS”, the “polyreactivity (PSR sort gate)” value is on record as “high polyreactivity”.

As to “QVQLVESGGGLVQAGGSLRLSCAASGFTFRRYTMGWYRQAPGKERELVAAISRSGGSTFYADSVKGRFTISRDYAKNTVYLQMNSLKPEDTAVYYCNAGRTYTALNGDYWGQGTQVTVSS”, the “polyreactivity (PSR sort gate)” value is listed as “high polyreactivity”.

On to “QVQLVESGGGLVQAGGSLRLSCAASGSTSKWYAMGWYRPAPGKERELVAAITKTGGRTYYADSVKGRFTISRDNAKNTVYLQMNSLKPEDTAVYYCAVEYLRGFIVIYDYWGQGTQVTVSS”, for which the “polyreactivity (PSR sort gate)” value is “high polyreactivity”.

Take “QVQLVESGGGLVQAGVSLRLSCAASGGIFGNYAMGGYRQAPAKERELVAAINGGTSTYYADSVKGRFTISRDNAKNTVYLQMNCLKPEDTAGYYCAADWRYLYYALDYWGQGTQVTVSS”: the “polyreactivity (PSR sort gate)” value is reported as “low polyreactivity”.

For “QVQLVESGGGLVQAGGSLRLSCAASGSIFVKNAMGWYRQAPGKERELVARITYSGGSTYYADSVKGRFTISRDNAKNTVYLQMNSLKPEDTADYYCDTDGNLRTAGYAYDHYYWGQGTQVTVSS”, the “polyreactivity (PSR sort gate)” value is “high polyreactivity”.

As for “QVQLVESGGGLVQAGGSLRLSCAASGSTYYNALGWYRPAPGKERELVAAIRFRSGSTYYADSVKGRFTISRDNAKNTDYVQMNSLKPEDTAVYYCAADNKRSWRYAYNYWGQGTQVTVSS”, the “polyreactivity (PSR sort gate)” value is “high polyreactivity”.

As for “QVQLVESGGGLVQAGGSLRLSCAASGRIFKPNAMGWYRQAPVKEREFVARITRNTGSTYYADSVKGRFTISRDNAKNTVYLQMNSLKPEDTAVYYCAAGAPSYYYYWGQGTQVTVSS”, the “polyreactivity (PSR sort gate)” value is reported as “high polyreactivity”.

As for “QVQLVESGGGLVQAGGSLRLSCAASGIILGVYAMGWYRQAPGKEREFVAAITSSGGSTYYADSVKGRFTISRDNAKNTVYLQMNSLKPEDTAVYYCAADFDTSVRLYGPTRYDYWGQGTQVTVSS”, the “polyreactivity (PSR sort gate)” value is on record as “low polyreactivity”.

Regarding “QVQLVESGGGLVEAGGSLRLSCAASARTFIGNAMVWYRQAPGKERELVAGIDSDGSTNYADSVNGRFTSSRDNAKNTVYLQMNSLKPEDTAVYYCAAVQGYRFYEYYYWGQGTQVTVSS”, the “polyreactivity (PSR sort gate)” value is recorded as “low polyreactivity”.

Turning to “QVQLVESVGCLVQAGGSLRLSCAATVSIFDRYAMGWNRQPPGKESELVAAISKSGGRTYYADSVKGRFTISRDNAKNTVYLQMNSLKPEDSAVYDCAADPLLGYLSHYYWGQGTQVTVSS”, the “polyreactivity (PSR sort gate)” value is “high polyreactivity”.

With “QVQLVDSGGGLVQAGGSLRLSCAASGNTIGRNAMGWYRQAPGKEWELVAAISFSGSRTYYADSVKGRFTISRDNAKNSVYLQMNILKPEDTAVYNFIAPEGRKPYDSWVQGTQVTVSS”, the “polyreactivity (PSR sort gate)” value is recorded as “low polyreactivity”.

Regarding “QVQLEESGGGLVQAGGSLRLSCAASGRTFITYAMGWYRQAPGKVRELVASITSNGGRTYYADSVKGRFKISRDNAKNTVYLQMNSLKPEYTAVYYCSAGTRSRAPYYRTSVDTYGYWGQGTQVTVSS”, the “polyreactivity (PSR sort gate)” value was “low polyreactivity”.

On to “QVQLVESGGGLVQAGGSLRLSCAASGSIFGAYTMRWYRQAPGKERELVAAITGGGITNYADSVKGRFTISRDNAKNTVYLQMNSLKPEDTAVYYCNAGYPPQTVVVGYDYWGQGTQVTVSS”, for which the “polyreactivity (PSR sort gate)” value is on record as “low polyreactivity”.

On to “QVQLVESGGGLVQAGGSLRLSCAASGFTFRFNAMGWYRQAPGKERELVAAIRQSGGSTYYADSVKGRFTISRDTAKNTVSLQMNSLKPEDTAVYYCATGRSRIRNFGYWGQGTQVTVSS”, for which the “polyreactivity (PSR sort gate)” value was “high polyreactivity”.
